Test results as given in paper PMC7904477 (Journal of the American Chemical Society, 2020).

T1: wt α2 (subunit α2 of E. coli class Ia ribonucleotide reductase) (E. coli, UniProt P00452 1-761)
T1 sequence (looked up): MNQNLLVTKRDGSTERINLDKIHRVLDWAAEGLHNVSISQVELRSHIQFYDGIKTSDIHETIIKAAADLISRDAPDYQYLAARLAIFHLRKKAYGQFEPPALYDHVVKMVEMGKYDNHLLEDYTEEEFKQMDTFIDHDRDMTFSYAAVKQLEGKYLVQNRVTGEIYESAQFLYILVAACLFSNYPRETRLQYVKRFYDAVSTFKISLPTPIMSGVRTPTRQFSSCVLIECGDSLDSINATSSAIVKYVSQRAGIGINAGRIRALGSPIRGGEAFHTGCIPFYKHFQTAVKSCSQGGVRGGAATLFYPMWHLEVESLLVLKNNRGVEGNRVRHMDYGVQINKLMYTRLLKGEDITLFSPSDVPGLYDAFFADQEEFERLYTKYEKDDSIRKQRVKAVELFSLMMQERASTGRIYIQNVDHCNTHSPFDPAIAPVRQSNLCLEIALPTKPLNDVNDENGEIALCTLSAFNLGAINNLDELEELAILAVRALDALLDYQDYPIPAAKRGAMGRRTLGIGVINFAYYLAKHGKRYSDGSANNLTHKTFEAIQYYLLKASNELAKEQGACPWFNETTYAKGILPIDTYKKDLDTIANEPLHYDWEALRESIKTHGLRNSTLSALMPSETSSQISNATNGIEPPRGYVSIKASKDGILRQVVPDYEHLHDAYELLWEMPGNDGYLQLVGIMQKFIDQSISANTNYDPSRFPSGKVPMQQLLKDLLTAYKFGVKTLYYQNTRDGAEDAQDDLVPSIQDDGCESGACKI


Target: T1, wt α2 (subunit α2 of E. coli class Ia …)
Test: competitive inhibition assay

Row | binding result | Kd [nM] | Binder
1 | binds | – | wt β2 (subunit β2 of E. coli class Ia ribonucleotide reductase) (enzyme, UniProt P69924 1-376, looked up, diferric-tyrosyl radical cofactor (Y122•), reconstitution yield of 1.1 Y•/β2) MAYTTFSQTKNDQLKEPMFFGQPVNVARYDQQKYDIFEKLIEKQLSFFWRPEEVDVSRDRIDYQALPEHEKHIFISNLKYQTLLDSIQGRSPNVALLPLISIPELETWVETWAFSETIHSRSYTHIIRNIVNDPSVVFDDIVTNEQIQKRAEGISSYYDELIEMTSYWHLLGEGTHTVNGKTVTVSLRELKKKLYLCLMSVNALEAIRFYVSFACSFAFAERELMEGNAKIIRLIARDEALHLTGTQHMLNLLRSGADDPEMAEIAEECKQECYDLFVQAAQQEKDWADYLFRDGSMIGLNKDILCQYVEYITNIRMQAVGLDLPFQTRSNPIPWINTWLVSDNVQVAPQEVEVSSYLVGQIDSEVDTDDLSNFQL
2 | – | 1060 | E52Q-photoβ2 (E52Q/C268S/C305S/S355C-β2 of E. coli class Ia ribonucleotide reductase, labelled with the [Re] photooxidant at C355) (enzyme, UniProt P69924 1-376, looked up, [Re] photooxidant (tricarbonyl(1,10-phenanthroline)-4-thiomethylpyridine rhenium) covalently ligated to C355 (S355C); endogenous Y122• reduced) MAYTTFSQTKNDQLKEPMFFGQPVNVARYDQQKYDIFEKLIEKQLSFFWRPEQVDVSRDRIDYQALPEHEKHIFISNLKYQTLLDSIQGRSPNVALLPLISIPELETWVETWAFSETIHSRSYTHIIRNIVNDPSVVFDDIVTNEQIQKRAEGISSYYDELIEMTSYWHLLGEGTHTVNGKTVTVSLRELKKKLYLCLMSVNALEAIRFYVSFACSFAFAERELMEGNAKIIRLIARDEALHLTGTQHMLNLLRSGADDPEMAEIAEESKQECYDLFVQAAQQEKDWADYLFRDGSMIGLNKDILSQYVEYITNIRMQAVGLDLPFQTRSNPIPWINTWLVSDNVQVAPQEVEVSCYLVGQIDSEVDTDDLSNFQL
